These results are taken from doi:10.1101/2024.12.16.628611.

The target in the assay is His6-BacA_(F134R), purified (Asticcacaulis biprosthecum). Put plainly: SEC; 500 μl of purified protein from the polymerization assay (Buffer C) on Superdex 200 Increase 10/300 GL, calibrated with standard proteins.

As usually defined, the stoichiometry N is a count of units in the complex or per binding partner. In turn, “His6-BacA_(F134R), purified (natural protein)” displayed a stoichiometry N of 2.
